Assays:
Assay in all cases: ELISA, antigen immobilised at 5 ug/ml, HRP-labelled secondary antibody
[1] = target: T1, Recombinant Human Mer Fc Chimera Protein (R&D systems) (human, UniProt Q12866 26-499, limits assumed)
T1 construct: Bought reagent; also called human MerTK antigen; human Fc fusion protein of human MerTK; not shown: human Fc
T1 sequence (looked up): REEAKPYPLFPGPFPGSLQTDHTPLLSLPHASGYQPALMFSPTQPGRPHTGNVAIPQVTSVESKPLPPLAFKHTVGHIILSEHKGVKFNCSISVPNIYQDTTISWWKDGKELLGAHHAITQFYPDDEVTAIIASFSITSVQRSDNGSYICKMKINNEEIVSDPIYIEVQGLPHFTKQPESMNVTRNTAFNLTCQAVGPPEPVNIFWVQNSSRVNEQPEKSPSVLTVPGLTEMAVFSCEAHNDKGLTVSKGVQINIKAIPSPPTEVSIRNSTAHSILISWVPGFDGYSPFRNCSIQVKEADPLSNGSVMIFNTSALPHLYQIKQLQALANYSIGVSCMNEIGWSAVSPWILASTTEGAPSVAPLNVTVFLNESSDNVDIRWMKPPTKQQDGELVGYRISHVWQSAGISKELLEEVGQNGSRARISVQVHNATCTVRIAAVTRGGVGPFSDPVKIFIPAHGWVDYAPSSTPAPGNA
Procedure: (§1) The ELISA was performed according to the procedures indicated below. First, the respective antigens were added to an ELISA plate (Nunc) at a concentration of 5 μg/ml and immobilized overnight at room temperature. After removing the immobilization solution, 1% BSA/PBS was added for blocking reaction and left to stand at room temperature for 1 hour. After the blocking, the plate was washed with 0.05% Tween 20/PBS and an antibody solution was added for primary reaction at room temperature for 1 hour. After washing, an HRP-labelled antibody (GE Healthcare) was added for secondary reaction for 1 hour. After washing, a chromogenic substrate solution of TMB (Dako) was added for chromogenic reaction for 10 minutes, 1 N sulfuric acid was added to terminate the reaction and the absorbance was measured at 450 nm.

[2] = target: T2, Recombinant Mouse Mer Fc Chimera Protein (R&D systems) (mouse, UniProt Q60805 23-496, limits assumed)
T2 construct: Bought reagent; also called mouse MerTK antigen; human Fc fusion protein of mouse MerTK; not shown: human Fc
T2 sequence (looked up): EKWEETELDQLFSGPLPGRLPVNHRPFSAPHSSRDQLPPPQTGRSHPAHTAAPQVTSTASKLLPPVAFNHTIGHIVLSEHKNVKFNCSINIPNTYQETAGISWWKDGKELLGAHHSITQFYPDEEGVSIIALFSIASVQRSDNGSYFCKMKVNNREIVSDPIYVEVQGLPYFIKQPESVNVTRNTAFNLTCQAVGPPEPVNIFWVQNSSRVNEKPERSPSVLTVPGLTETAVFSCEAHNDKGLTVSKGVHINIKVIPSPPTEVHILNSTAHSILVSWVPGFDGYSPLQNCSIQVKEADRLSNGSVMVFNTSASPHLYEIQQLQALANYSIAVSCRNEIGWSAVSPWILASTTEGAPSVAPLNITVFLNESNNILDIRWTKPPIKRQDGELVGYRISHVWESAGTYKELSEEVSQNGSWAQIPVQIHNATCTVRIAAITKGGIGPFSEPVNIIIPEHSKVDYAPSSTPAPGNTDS
Procedure: as §1

[3] = target: T3, rat MerTKECD-hFc (rat, UniProt P57097 19-497)
T3 construct: extracellular domain; Prepared in the same manner as hMerTKECD-mFc and mMerTKECD-mFc; not shown: human Fc
T3 sequence (looked up): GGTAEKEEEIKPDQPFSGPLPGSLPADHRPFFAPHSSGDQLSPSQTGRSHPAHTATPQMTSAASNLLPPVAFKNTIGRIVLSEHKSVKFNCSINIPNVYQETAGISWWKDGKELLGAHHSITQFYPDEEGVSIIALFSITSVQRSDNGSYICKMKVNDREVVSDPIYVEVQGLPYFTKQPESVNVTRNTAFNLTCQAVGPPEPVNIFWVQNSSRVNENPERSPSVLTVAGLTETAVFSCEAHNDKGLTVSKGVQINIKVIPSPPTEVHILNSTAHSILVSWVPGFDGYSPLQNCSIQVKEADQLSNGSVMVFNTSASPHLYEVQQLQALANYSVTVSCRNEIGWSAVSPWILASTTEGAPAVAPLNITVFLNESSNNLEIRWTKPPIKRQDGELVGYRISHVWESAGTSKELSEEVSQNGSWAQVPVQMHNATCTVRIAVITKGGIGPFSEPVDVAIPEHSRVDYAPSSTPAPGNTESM
Procedure: as §1

Measured: binding result

B1: m20A77_mIgG1 (antibody, V domains shown)
VH: QVQLQQPGTELVKPGASVKLSCRASGNTFTSYWMHWVKQRPGQGLEWIGNINPSSGGTNYNEKFKSKATLTVDKSSSTAYMQLSSLTSEDSAVYYCARLNYYGFDGFAFWGQGTLVTVSA
VL: DIKMTQSPSSMYASLGERVTITCKASQDINSYLSWFQQKPGKSPKTLIYRANRLVSGVPSRFSGSGSGQDYSLTISSLEYEDMGIYYCLQYDEFPFTFGSGTKLEIK
notes: CDR-modified variant of 20A77, made recombinantly with mouse IgG1 heavy chain and kappa light chain constant regions
binds: [1] | [2] | [3]

From US20250326862A1, “Antibody or Fragment Thereof Binding Specifically to Mertk, and Anti-Tumor Agent” (Chiome Bioscience Inc., priority 2021, published 2025)
